Source: patent US20240156979A1

Biological target: Siglec-specific antibody for Siglec-9 (R&D Systems MAB1139)
Test: ForteBio Octet; construct captured on AHC biosensor, antibody titrated; 1:1 fit

Kd: < 0.01 µM
Substance: Sig-9-Fc (Fc fusion)
